Experimental data from publication PMC10197521 (bioRxiv, 2023).

Key:
Assay in all cases: co-IP
[1] = molecular target: T1, C-terminally truncated mouse CD4 T1 (mouse, UniProt P06332-1 27-422)
T1 sequence (looked up): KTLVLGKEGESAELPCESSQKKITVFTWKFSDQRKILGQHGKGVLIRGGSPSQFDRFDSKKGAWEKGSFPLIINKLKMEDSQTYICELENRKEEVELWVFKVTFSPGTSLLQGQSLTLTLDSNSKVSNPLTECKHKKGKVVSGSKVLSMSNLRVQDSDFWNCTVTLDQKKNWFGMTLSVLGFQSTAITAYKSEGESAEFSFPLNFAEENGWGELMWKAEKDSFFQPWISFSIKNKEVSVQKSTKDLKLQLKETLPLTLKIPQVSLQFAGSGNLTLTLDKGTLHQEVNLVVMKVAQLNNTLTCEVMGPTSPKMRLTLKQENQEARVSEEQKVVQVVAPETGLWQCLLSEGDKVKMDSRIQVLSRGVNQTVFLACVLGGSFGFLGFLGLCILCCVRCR

[2] = molecular target: T2, T1-TMD (CD4 T1 with GGXXG to GVXXL) (mouse, UniProt P06332-1 27-422, G403V | G406L)
T2 sequence (looked up): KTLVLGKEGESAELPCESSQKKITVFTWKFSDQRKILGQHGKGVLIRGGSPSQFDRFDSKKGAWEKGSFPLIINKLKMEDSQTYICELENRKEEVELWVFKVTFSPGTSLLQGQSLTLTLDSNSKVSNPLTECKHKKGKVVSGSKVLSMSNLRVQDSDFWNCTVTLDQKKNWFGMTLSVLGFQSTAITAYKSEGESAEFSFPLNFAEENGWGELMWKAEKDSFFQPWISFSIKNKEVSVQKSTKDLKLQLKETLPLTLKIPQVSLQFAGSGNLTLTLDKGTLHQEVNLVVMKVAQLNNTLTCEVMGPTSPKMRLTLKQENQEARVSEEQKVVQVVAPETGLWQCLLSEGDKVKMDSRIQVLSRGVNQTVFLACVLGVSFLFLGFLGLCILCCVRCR

[3] = molecular target: T3, T1-Palm (2C) (mouse, UniProt P06332-1 27-422, C418S | C421S)
T3 sequence (looked up): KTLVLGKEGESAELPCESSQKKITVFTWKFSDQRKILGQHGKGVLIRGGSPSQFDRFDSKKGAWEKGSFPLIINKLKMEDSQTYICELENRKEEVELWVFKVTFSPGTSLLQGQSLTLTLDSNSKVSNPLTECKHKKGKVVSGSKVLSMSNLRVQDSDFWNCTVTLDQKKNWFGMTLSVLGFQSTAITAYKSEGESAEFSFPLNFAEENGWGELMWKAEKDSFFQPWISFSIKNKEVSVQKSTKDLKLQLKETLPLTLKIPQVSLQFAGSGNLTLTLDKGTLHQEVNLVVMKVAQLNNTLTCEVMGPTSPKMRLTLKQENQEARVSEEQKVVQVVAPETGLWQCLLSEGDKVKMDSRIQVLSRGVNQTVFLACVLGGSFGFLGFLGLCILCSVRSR

[4] = molecular target: T4, T1-TP (2C) (mouse, UniProt P06332-1 27-422, G403V | G406L | C418S | C421S)
T4 sequence (looked up): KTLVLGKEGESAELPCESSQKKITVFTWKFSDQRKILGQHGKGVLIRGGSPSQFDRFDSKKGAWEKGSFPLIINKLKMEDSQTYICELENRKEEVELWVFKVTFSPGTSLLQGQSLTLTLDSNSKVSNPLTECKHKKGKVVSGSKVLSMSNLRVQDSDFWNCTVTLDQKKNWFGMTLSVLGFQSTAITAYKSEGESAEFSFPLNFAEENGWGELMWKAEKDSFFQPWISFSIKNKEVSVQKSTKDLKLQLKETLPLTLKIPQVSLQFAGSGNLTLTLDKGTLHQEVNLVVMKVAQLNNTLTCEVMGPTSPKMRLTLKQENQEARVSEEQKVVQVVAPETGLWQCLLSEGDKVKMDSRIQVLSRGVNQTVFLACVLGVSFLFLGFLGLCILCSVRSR

[5] = molecular target: T5, T1-TP (3C) (mouse, UniProt P06332-1 27-422, G403V | G406L | C417S | C418S | C421S)
T5 sequence (looked up): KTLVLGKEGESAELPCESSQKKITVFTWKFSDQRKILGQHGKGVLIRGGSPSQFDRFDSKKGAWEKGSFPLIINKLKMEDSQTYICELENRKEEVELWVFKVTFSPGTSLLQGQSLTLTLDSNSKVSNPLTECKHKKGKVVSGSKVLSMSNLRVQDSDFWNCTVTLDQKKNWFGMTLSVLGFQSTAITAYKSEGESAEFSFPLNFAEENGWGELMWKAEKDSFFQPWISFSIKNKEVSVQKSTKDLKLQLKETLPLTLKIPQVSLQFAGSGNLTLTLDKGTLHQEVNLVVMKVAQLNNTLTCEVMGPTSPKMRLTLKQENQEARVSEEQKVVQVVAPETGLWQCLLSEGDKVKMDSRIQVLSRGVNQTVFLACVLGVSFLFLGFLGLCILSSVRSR

Lck DRM AUC (LCK found with CD4, normalised to CD4), percent of WT [1]: 28.8 % of WT control | Lck DSM AUC (LCK found with CD4, normalised to CD4), percent of WT [1]: 16.1 % of WT control | Lck Total AUC (LCK found with CD4, normalised to CD4), percent of WT [1]: 19.2 % of WT control | Lck DRM AUC (LCK found with CD4, normalised to CD4), percent of T1 [2]: 62.4 % of T1 control | Lck DSM AUC (LCK found with CD4, normalised to CD4), percent of T1 [2]: 111 % of T1 control | Lck Total AUC (LCK found with CD4, normalised to CD4), percent of T1 [2]: 93 % of T1 control | Lck DRM AUC (LCK found with CD4, normalised to CD4), percent of T1 [3]: 274 % of T1 control | Lck DSM AUC (LCK found with CD4, normalised to CD4), percent of T1 [3]: 131 % of T1 control | Lck Total AUC (LCK found with CD4, normalised to CD4), percent of T1 [3]: 139 % of T1 control | Lck DRM AUC (LCK found with CD4, normalised to CD4), percent of T1 [4]: 121 % of T1 control | Lck DSM AUC (LCK found with CD4, normalised to CD4), percent of T1 [4]: 115 % of T1 control | Lck Total AUC (LCK found with CD4, normalised to CD4), percent of T1 [4]: 113 % of T1 control | Lck DRM AUC (LCK found with CD4, normalised to CD4), percent of T1 [5]: 86.8 % of T1 control | Lck DSM AUC (LCK found with CD4, normalised to CD4), percent of T1 [5]: 103 % of T1 control | Lck Total AUC (LCK found with CD4, normalised to CD4), percent of T1 [5]: 101 % of T1 control
B1: Src kinase LCK (enzyme, UniProt P06240 1-509, looked up)
chain: MGCVCSSNPEDDWMENIDVCENCHYPIVPLDSKISLPIRNGSEVRDPLVTYEGSLPPASPLQDNLVIALHSYEPSHDGDLGFEKGEQLRILEQSGEWWKAQSLTTGQEGFIPFNFVAKANSLEPEPWFFKNLSRKDAERQLLAPGNTHGSFLIRESESTAGSFSLSVRDFDQNQGEVVKHYKIRNLDNGGFYISPRITFPGLHDLVRHYTNASDGLCTKLSRPCQTQKPQKPWWEDEWEVPRETLKLVERLGAGQFGEVWMGYYNGHTKVAVKSLKQGSMSPDAFLAEANLMKQLQHPRLVRLYAVVTQEPIYIITEYMENGSLVDFLKTPSGIKLNVNKLLDMAAQIAEGMAFIEEQNYIHRDLRAANILVSDTLSCKIADFGLARLIEDNEYTAREGAKFPIKWTAPEAINYGTFTIKSDVWSFGILLTEIVTHGRIPYPGMTNPEVIQNLERGYRMVRPDNCPEELYHLMMLCWKERPEDRPTFDYLRSVLDDFFTATEGQYQPQP
